{
  "source": "patent US20180201910",
  "proteins": {"B1": {"name": "ferredoxin reductase encoded by FDR gene 3 (FDR3), YP_001868825, Nostoc punctiforme PCC 73102 (protein)", "chain": "MSFTSMPSLREQQHPLIRQLADCIEAAWHQHLDLSPYHLPDELGYVEGRLEGEKLTIENRCYQTPQFRKMHLELANIGNMLDILHCVMFPRPQYNLPMFGCDLVGGRGQISAAIADLSPIQLERTLPESYTTALAQLPVLNFSQPRELPEWGNIFSDFCIFVRPGSPEEEAMFLSRVREFLDIHCMQAIASHPVSVEQVTQNLAGQHNYCTKQQQNDKTRRVLEKAFGPVWAENYMTTVLFDLPT"}, "B2": {"name": "ferredoxin reductase encoded by FDR gene 1 (FDR1), YP_001865390, Nostoc punctiforme PCC 73102 (protein)", "chain": "MNSPVYQTVIVGGGFTGLFTALHLAHEHYPRSVILIDKDERFCFKPLLYEYFDGEMDTFQVVPRFSELLKGSGVIFVQDTVQSINLHQREVKLASGNSYNYSNLVLALGSVTGYHQVEGARENAFPFWTQADAIALDRHLRDCLQKAVQTEDVEQRRKLLTVVIVGGGASGVEMAATLADFLPHWYSALGGNSSEIRVVLLNHGKEILDGDINNPLREIAERELNKRAVPIEMIVEAEATAIGSTSIQYKRNEQIETLATHTTVWTAGTSTHPLIKDLPIPKEHRDRRDRPLVTPNLQLLDFPEVFVGGDCAAVQDNSLPPTAQVAYQQGANIAQNLKALALGEEPKPAKVNIRGTLLKLGINDAAANLFNVFEVVGETAHLIRQGTYLTLLPAPIHDFKATTEWVDEEVFHQHLDPHDVGKKVVQAAEIVGVGVVGILAARKLLKMLGDEDKNSK"}, "B3": {"name": "ferredoxin reductase encoded by FDR gene 2 (FDR2), YP_001866231, Nostoc punctiforme PCC 73102 (protein)", "chain": "MYNQGAVEGAANIELGSRIFVYEVVGLRQGEETDQTNYPIRKSGSVFIRVPYNRMNQEMRRITRLGGTIVSIQPITALEPVNGKASFGNATSVVSELAKSGETANSEGNGKATPVNAHSAEEQNKDKKGNTMTQAKAKKDHGDVPVNTYRPNAPFIGKVISNEPLVKEGGIGIVQHLKFDLSGGDLKYIEGQSIGIIPPGLDKNGKPEKLRLYSIASTRHGDDVDDKTVSLCVRQLEYKHPETGETVYGVCSTHLCFLKPGEEVKITGPVGKEMLLPNDPDANVIMMATGTGIAPMRAYLWRQFKDAERAANPEYQFKGFSWLIFGVPTTPNLLYKEELEEIQQKYPENFRLTAAISREQKNPQGGRMYIQDRVAEHADELWQLIKNEKTHTYICGLRGMEEGIDAALTAAAAKEGVTWSDYQKQLKKAGRWHVETY"}},
  "key": {"[1]": {"target": "T1, ferredoxin encoded by FD gene 5 (Fd4), YP_001864061, Nostoc punctiforme PCC 73102", "T1 chain": "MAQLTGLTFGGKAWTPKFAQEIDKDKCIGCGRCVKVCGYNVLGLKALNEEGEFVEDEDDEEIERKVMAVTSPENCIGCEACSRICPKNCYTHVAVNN"}, "[2]": {"target": "T2, ferredoxin encoded by FD gene 3 (Fd7), YP_001865513, Nostoc punctiforme PCC 73102", "T2 chain": "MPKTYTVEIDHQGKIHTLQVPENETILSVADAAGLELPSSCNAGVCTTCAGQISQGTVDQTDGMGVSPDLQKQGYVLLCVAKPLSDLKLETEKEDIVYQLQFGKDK"}, "[3]": {"target": "T3, ferredoxin encoded by FD gene 2 (Fd6), YP_001864826, Nostoc punctiforme PCC 73102", "T3 chain": "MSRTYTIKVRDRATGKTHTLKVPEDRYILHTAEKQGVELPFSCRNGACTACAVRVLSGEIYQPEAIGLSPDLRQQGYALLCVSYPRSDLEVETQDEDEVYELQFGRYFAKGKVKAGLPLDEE"}, "[4]": {"target": "T4, ferredoxin encoded by FD gene 1 (Fd5), YP_001864105, Nostoc punctiforme PCC 73102", "T4 chain": "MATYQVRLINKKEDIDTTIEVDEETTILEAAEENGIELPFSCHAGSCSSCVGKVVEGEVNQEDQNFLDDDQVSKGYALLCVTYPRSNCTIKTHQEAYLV"}, "[5]": {"target": "ferredoxin encoded by FD gene 4 (Fd8), YP_001867060, Nostoc punctiforme PCC 73102", "sequence (chain, as listed by the source)": "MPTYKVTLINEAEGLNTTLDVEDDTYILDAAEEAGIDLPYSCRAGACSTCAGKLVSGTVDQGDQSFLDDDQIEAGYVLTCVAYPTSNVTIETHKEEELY"}},
  "data": [
    {"protein": "B1", "values": [
      {"measurement": "amount of alkane production 3 days after the initiation of culture compared with the amount of Strain No. 2 (E. coli Rosetta co-expressing decarbonylase and acyl-ACP reductase, GC/MS)", "setting": "[1]", "value": "x"},
      {"measurement": "amount of alkane production 3 days after the initiation of culture compared with the amount of Strain No. 2 (E. coli Rosetta co-expressing decarbonylase and acyl-ACP reductase, GC/MS)", "setting": "[2]", "value": 2.0, "unit": "times"},
      {"measurement": "amount of alkane production 3 days after the initiation of culture compared with the amount of Strain No. 2 (E. coli Rosetta co-expressing decarbonylase and acyl-ACP reductase, GC/MS)", "setting": "[3]", "value": 3.4, "unit": "times"},
      {"measurement": "amount of alkane production 3 days after the initiation of culture compared with the amount of Strain No. 2 (E. coli Rosetta co-expressing decarbonylase and acyl-ACP reductase, GC/MS)", "setting": "[4]", "value": "x"},
      {"measurement": "amount of alkane production 3 days after the initiation of culture compared with the amount of Strain No. 2 (E. coli Rosetta co-expressing decarbonylase and acyl-ACP reductase, GC/MS)", "setting": "[5]", "value": "x"}
    ]},
    {"protein": "B2", "values": [
      {"measurement": "amount of alkane production 3 days after the initiation of culture compared with the amount of Strain No. 2 (E. coli Rosetta co-expressing decarbonylase and acyl-ACP reductase, GC/MS)", "setting": "[1]", "value": "x"},
      {"measurement": "amount of alkane production 3 days after the initiation of culture compared with the amount of Strain No. 2 (E. coli Rosetta co-expressing decarbonylase and acyl-ACP reductase, GC/MS)", "setting": "[2]", "value": "x"},
      {"measurement": "amount of alkane production 3 days after the initiation of culture compared with the amount of Strain No. 2 (E. coli Rosetta co-expressing decarbonylase and acyl-ACP reductase, GC/MS)", "setting": "[3]", "value": 2.4, "unit": "times"},
      {"measurement": "amount of alkane production 3 days after the initiation of culture compared with the amount of Strain No. 2 (E. coli Rosetta co-expressing decarbonylase and acyl-ACP reductase, GC/MS)", "setting": "[4]", "value": 2.5, "unit": "times"},
      {"measurement": "amount of alkane production 3 days after the initiation of culture compared with the amount of Strain No. 2 (E. coli Rosetta co-expressing decarbonylase and acyl-ACP reductase, GC/MS)", "setting": "[5]", "value": 2.6, "unit": "times"}
    ]},
    {"protein": "B3", "values": [
      {"measurement": "amount of alkane production 3 days after the initiation of culture compared with the amount of Strain No. 2 (E. coli Rosetta co-expressing decarbonylase and acyl-ACP reductase, GC/MS)", "setting": "[1]", "value": "x"},
      {"measurement": "amount of alkane production 3 days after the initiation of culture compared with the amount of Strain No. 2 (E. coli Rosetta co-expressing decarbonylase and acyl-ACP reductase, GC/MS)", "setting": "[2]", "value": 3.8, "unit": "times"},
      {"measurement": "effects of improving the alkane productivity in the E. coli JM109 strain", "setting": "[2]", "value": "two times greater in the E. coli JM109 strain"},
      {"measurement": "effects of improving the alkane productivity in the Klebsiella sp. 100048 strain", "setting": "[2]", "value": "4 times greater than the effects in the Klebsiella sp. 100048 strain"},
      {"measurement": "amount of alkane production 3 days after the initiation of culture compared with the amount of Strain No. 2 (E. coli Rosetta co-expressing decarbonylase and acyl-ACP reductase, GC/MS)", "setting": "[3]", "value": 2.5, "unit": "times"},
      {"measurement": "amount of alkane production 3 days after the initiation of culture compared with the amount of Strain No. 2 (E. coli Rosetta co-expressing decarbonylase and acyl-ACP reductase, GC/MS)", "setting": "[4]", "value": 1.9, "unit": "times"},
      {"measurement": "amount of alkane production 3 days after the initiation of culture compared with the amount of Strain No. 2 (E. coli Rosetta co-expressing decarbonylase and acyl-ACP reductase, GC/MS)", "setting": "[5]", "value": 3.0, "unit": "times"}
    ]}
  ]
}
